Reference: the DeepSol protein solubility set

Assay: soluble on expression in E. coli; label from the status in PepcDB or PDB records

Row | Sequence | soluble on expression in E. coli
1 | MVNKDVTKVCIGKIEELPEQLGKTVYIEDKELAVFKLSDGSIRAIENRCPHKGGVLAEGIVSGQYVFCPMHDWKISLEDGIVQEPDHGCVKTYETLIEGEHVYLVY | not soluble
2 | MSLSFYERYLEYKNFDFENFFDQVTDRDIINIINKDRRLSELEFLMLLSKKAVKYLEPLAQKANRITVQNFGKVIFLYTPMYLANYCVNQCIYCGFNITNNIKRRKLTLDEVEKEAYAISSTGLRHILILTGESRKESPVQYIKDCVKILQKYFRSISIEVYPLEENEYAELIEAGVDGLTIYQEVYDEEKYKALHLKGPKRNYLYRLDAPERACKASMRNVNIGALLGLHDWRTEAFYTGLHADYLQNKYPDVEIGLSLPRIRPHPCGSFVPDCKVEDRDLVQIMIAYRLFMPRAGIAISTRERESLRNNLIGLGVTKMSAASSTEVGGHTLGDKSDGQFDVNDRRGVEEMRQMIYSKGYQPVFKDWQAEGHHHHHH | soluble
3 | MSRATYIIGALAGSAVVAYVCDKVISDDKLFGGTTPGTITNKEWGAATEERLQAWPRVAGPPVVMNPISRQNFIVKSRPE | not soluble
4 | MNRYITRGIANNLPNILQHQLWQLVSEREQEQTKDNTLVDYFHIFQFNTHRNQLYIKHKQERPAYVKTQKANINQPININKVYIIREDDVDLSYYIMLLPNEYLEHHHHHH | soluble
5 | MGSDKIHHHHHHASGFTLGKDILSYVAVGDSFTEGLDDPYPDSARFPQGRYRGWADRFAEHLARHVREVRYANLAVRGKLLRQILTEQLPRAVELRPDLVTLCAGGNDILRPGSDPDTLADAFEGAVRQLRDTGADVVIFTGFDTGFQPVMRHLRGKIATYNMHLRGIADRYHCRVVDLWSMKIFQDRRAWSDDRLHLSAEGHRRLALRVCEVMGVPVDEDWNAPWPQEPPAPWHQARQEDLRWARQHLVPWIHRRLTGRSSGDGVRPKRPNLEPLVRR | not soluble
6 | MGSDKIHHHHHHMSLTIDGVTKKFGTFTAVNNLHVSVPKGEMFGMLGANGAGKTTTFRMILGLLEPTEGTIHWREQPLTYNQTNCIGYLPEERGLYPKLTVKDQLKYLGRLKGMKTQDIQKEMKMWLERFEVPEYEHKRVEQLSKGNQQKIQFIASVLHRPELLILDEPFSGLDPVNVELLKKAVIDLKKEGTTILFSSHRMEHVEELCQHLCILHRGSPVVEGNLKNIKRSFGKKNVIIQGEFALEPLVDIPGVLRHQETSAGAKFQIANEETAKLLFQAVATAGFVQKFELEEPSLHDIFVEKVGTRYE | not soluble
7 | MAHHHHHHMKAFFIGKREYRRVLSLQETIFNAKIARQVSVRRGASKLPLLPDVVILVEHSTPVYTIGRRDTTHGLPPHCSIDVVKTRRGGGITYHGPGQLTMYPIANIQLLWKDCTAEKPRSPIEWFSWALEEAMIQTAAMYHIPTHRFKTGVWADQYKDIPAQKLGAVGLQLGSWVSMHGAGLNVASDLHFFDDIIMCELPDRRATSLSNEMQHRGVAESPPLVQATAPVLLQKFIESLHQQPSCAAPQLVDLSADADWHERVIDTAGISTP | not soluble
8 | SGKQPVKLKAVVYALSPFQQKIMTGLWKDLPEKIHHKVSENWISATLLVTPVVGTYWYAQYFKEQEKLEHRF | soluble
9 | MGSDKIHHHHHHMELKARAVGVEIIPKGKIIYYSVPNGDEYERGDLVLVLGDFGLEVGKVLIPPREVVIDEVGYELKAVIRKLTDEDLEQYRKNVEDALKAFQICKQKIKEHGLPMKLLYAKYTFDRTRLIFFFSAEGRVDFRELVRDLAKIFKTRIELRQVGVRDEMKFFGGLGLCGLPTCCSTFLREFTSVTLKHAKKQQMMINPAKISGPCRRLLCCLTYEYDFYEKELEGIPDEGSTITYEGKRYKVVNVNVFLRTVTLFSEQEGEMIKLPFDYFRKGE | not soluble
10 | VLTDIQIAQSCKMKPITQVAAELGIDEEELELYGKYKAKLSDKLWERVKDRPDGKLVLVTAINPTPAGEGKTTTTVGLGQAMARIGKKAVIALREPSLGPVMGIKGGAAGGGYSQVVPMEDINLHFTGDMHAITAANNLLSAAIDNHIQQGNELNIDVRQIIWKRAMDMNDRALRNIVVGLGGKANGVPREDGFQITVASEVMAVLCLSTGLMDLKERLGRILIGYTYDGKPVFAKDLKVNGAMALLLKDAIKPNLVQTLENTPAIVHGGPFANIAHGCNSIVATRLGLKLADYCITEAGFGADLGAEKFFNIKCRYAGLKPDLVVLVATIRALKYNGGVKKENLGIENLPALEKGFVNLEKHIENIRKFQVPLLVAINHFDTDSEAEIEYVKNRCKALNVEVAFSDVFSKGSEGGIELAEKVVKLTETQKSNFKPLYDVNLSIREKIEIIAREIYGADSVNILPAAERAIKKIEELKMDKLPICVAKTQYSLSDDPTLLGRPQGFVITVREIKLSSGAGFIVAITGDIMTMPGLPKVPAAEKIDIDENGVITGLF | soluble
11 | AEQDMYLLRQSFDKYKTVSAGVPWFSALFGRDSLITASQTLMLNPEIAKETLMLLAAYQGKHEDEWREEAPGKILHELRLGEMARCQEIPHTPYYGTVDATPLWLMLYSEYYSWTHDRETLEQLWPHALAAMDWIDRNMQPSGYLTYHRKSKRGLDNQGWKDSGDCIVDRKGDLANGSIALSEVQAYVYAAKTRLAEIARMKKRLDLFERWQEEARSLKERFNQDFWIEDQDFCALALDGAGKQVDSITSNPGHCLLLGIFTPERAYSVAERLRAPDMFNGWGIRTLSSLSPAYNPMGYHIGSVWPHDNSLIAMGLRSLGLIDQALEIFQGLLDMTSQQPYQRPPELFCGYERNGDRSPVQYPVACTPQAWATGSIFQ | not soluble
12 | MSLLRSLRVFLVARTGSYPAGSLLRQSPQPRHTFYAGPRLSASASSKELLMKLRRKTGYSFVNCKKALETCGGDLKQAEIWLHKEAQKEGWSKAAKLQGRKTKEGLIGLLQEGNTTVLVEVNCETDFVSRNLKFQLLVQQVALGTMMHCQTLKDQPSAYSKGFLNSSELSGLPAGPDREGSLKDQLALAIGKLGENMILKRAAWVKVPSGFYVGSYVHGAMQSPSLHKLVLGKYGALVICETSEQKTNLEDVGRRLGQHVVGMAPLSVGSLDDEPGGEAETKMLSQPYLLDPSITLGQYVQPQGVSVVDFVRFECGEGEEAAETE | soluble
13 | NKDGPVCLQVKPCTPEFYQTHFQLAYRLQSRPRGLALVLSNVHFTGEKELEFRSGGDVDHSTLVTLFKLLGYDVHVLCDQTAQEMQEKLQNFAQLPAHRVTDSCIVALLSHGVEGAIYGVDGKLLQLQEVFQLFDNANCPSLQNKPKMFFIQACRGDETDRGVDQQD | soluble
14 | SLAEGLITGTVLTQFDQLYRKKPGMTMSCAKLPQNISKNRYRDISPYDATRVILKGNEDYINANYINMEIPSSSIINQYIACQGPLPHTCTDFWQMTWEQGSSMVVMLTTQVERGRVKCHQYWPEPTGSSSYGCYQVTCHSEEGNTAYIFRKMTLFNQEKNESRPLTQIQYIAWPDHGVPDDSSDFLDFVCHVRNKRAGKEEPVVVHCSAGIGRTGVLITMETAMCLIECNQPVYPLDIVRTMRDQRAMMIQTPSQYRFVCEAILKVYEEGFVKPLTTSTNK | not soluble
15 | NDNRPVFKEGQVEVHIPENAPVGTSVIQLHATDADIGSNAEIRYIFGAQVAPATKRLFALNNTTGLITVQRSLDREETAIHKVTVLASDGSSTPARATVTINVTDVN | soluble
16 | MPEPRCTAIVNFLNLSHSILISIFSVSVMSNYHHNHNYQHRPRGYERLPGKRLPDRWNIYDNVGRDIDGTRFVPFKTPLDSSFFDGKNMPVELQFGVKTLISLAQQANKQIGLVIDLTNTDRYYKKTEWADHGVKYLKLNCPGHEVNEREDLVQDFINAVKEFVNDKENDGKLIGVHCTHGLNRTGYLICRYMIDVDNYSASDAISMFEYYRGHPMEREHYKKSLYEAERKKKYGKSSGKSSGNSADSTISSEQLHRNNSQ | not soluble
17 | MSDYQVLLYYKYTTIDDPETFAKEHLAACKEMELKGRILVATEGINGTVSGTVEATNKYMDYMANDARFADMVFKIDAADAHAFKKMHVRPRAEIVSLSLEEDVNPLEVTGTYLEPSEFREALLDEDTVILDARNDYEFDIGHFRGAVRPDIQNFRELPGWIEDNREQLADKKIVTYCTGGIRCEKFSGWLKTAGFDDVSQLHGGIATYGKNEETKGELWDGQMYVFDERIAVPINQVNPTIVGKDYFDGTPCERYINCANPYCNKQILASIENEKKYLRSCSHDCRVHPANLYTKNLSKEEFTERLQAIDETLPEMVQ | not soluble
18 | MAHHHHHHMRPVIVMLLHEEQDTGAYMIKYLVTRGMDFVMFRCWEERVASLVPKAAGETIRCLPVANKPHHYVPCLVNSTAAPSTESESLVTTSTSLAPVSSNVAEDCRIRAVASFGGSMSVNDELSYFESIRSLMRSCLEKRIPVIGHCLGGQLLSSALGGRIVLSENIEVGWYEMVVEEAEDVKDWFGGRKRFDAFHIHTDSFTIPQGARRIVTGAYCANQAFQVGDQFALGMQFHPEVDEDKVRSLISSQFPTLYTEEELADILRKGAEGAKTPDGRPLVSPGSMTRECIEKCLREGRIEQNRPIADSIYDTWCSGFLF | not soluble
19 | MGSDKIHHHHHHLTRREVVGLKLGDLMPRDLLKQELFVQDLKSHINDNVEIILKIRSKKLQETKDSKKFLIMTLEDRTGTVRAVDWYNAELNDQRLKEGNVVRVKGRVVFFENRIQINVDNDYGAIKILKSDEYDYTKFVAQSKKDLEILKKKLFVLLDQIKDQHYKKLLKAFFENKEFSEKFFRSPAGMRVHHAYIGGLLEHSVTVAEICKEISKYYSLDRDLLITGALLHDVGKVEEYRITESGIEVTTEGELKGHIAIGAAMVREMAKKLSIPEHKILELEHIILSHHGELEWGSPVVPKTIEALIVHHVENLDSKIARFIEVMESSESNQGWTEYDRNLGRRIFLRGGGTIVSLTV | not soluble
20 | MKVLRHGLFKDRRVFDENYIPPELRVRRGEAEALARIYLNRLLSGAGLSDVNMIYGSIGRVGIGKTTLAKFTVKRVSEAAAKEGLTVKQAYVNAFNAPNLYTILSLIVRQTGYPIQVRGAPALDILKALVDNLYVENHYLLVILDEFQSMLSSPRIAAEDLYTLLRVHEEIPSRDGVNRIGFLLVASDVRALSYMREKIPQVESQIGFKLHLPAYKSRELYTILEQRAELGLRDTVWEPRHLELISDVYGEDKGGDGSARRAIVALKMACEMAEAMGRDSLSEDLVRKAVSENEAASIQTHELEALSIHELIILRLIAEATLGGMEWINAGLLRQRYEDASLTMYNVKPRGYTQYHIYLKHLTSLGLVDAKPSGRGMRGRTTLFRLAPHLPADRLIEVVDNIIQAKMASGYE | soluble
21 | MGSDKIHHHHHHMPGICLCFQVHRPVILKRYTFFDIGRHHLYEDQEANRRILNQLADSCYLPANRLLLRLMEKSEGRFRVAFALSGAMIHLCEKYRQDIMEGFRRLADTGCVEFLNEADPHSLAFLFSPREFREQIEAHKKKIQELFGQNPTTFHCTDLIYSNELAGVAEEMGHSAFLAEGGQGLPGFQGPDFVYQPADCARLKLLLRNYHLSADIRLHFSDGSRNGHPFPAGWFAERILHSLENSGGQVVNLFLDYETSGKYLTPDRGNSEFLQALSAEMLGQPDFHFQLPAEIAQRYDPQARLDVTDSASGFDIHRNLTTVAGNAMQQDALRVLYDLEEAVRKRKDADCLAIWRMLQTSDYFNYMCTEGFADRVRRRDSGPYGSPYESYINYMNILEDFSRTLQS | not soluble
22 | DTVIAMDAYTPHDVTTQAQQLIDATPTAPALAPMTWPTPRVAARVRTQRDQRGRAPKPPRARGIDTIQHGRDDIDLRAISQLACTSQTQAIARIIATLEKRVDDHTPMITLVNDVLAEIETHGWAALSGQRAGSHAERHPGRVAMPRPQEVMAALNRYRGLSLVGSLDA | not soluble
